The target of the series is T1, His6-SlyA (Escherichia coli K-12 MG1655?) (UniProt P0A8W3).
T1 sequence: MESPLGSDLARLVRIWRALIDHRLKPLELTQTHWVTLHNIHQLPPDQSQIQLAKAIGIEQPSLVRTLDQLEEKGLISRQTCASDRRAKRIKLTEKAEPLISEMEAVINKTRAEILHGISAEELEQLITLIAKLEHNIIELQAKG
As to the kind of experiment: EMSA. To be noted: 20 µl: 10 mM Tris/HCl pH 7.5, 50 mM KCl, 1 mM DTT, poly(dI-dC) (1 µg), ~1 nM biotin-DNA, 0-500 nM SlyA, 25 °C, 30 min. Background: In EMSA bound probe runs differently from free probe, usually more slowly.

DNA binding and binding data for four sequences are collected here from PMC5797941.

For “GCAAGCACCTTAAAATCACCATCATACACTAAATCAGTAAGTTGGCAGCATTACCGAAATCCCCATCCTTTAGGGCAGTGAGGATGTCAATAATAGCAGACCACATCATGAGTCATTCTGACCGACACATGCCAGAAGCAGAGGCTCCATCCCATTTTATACCTACCTTATAACACTTAGAAAAACAACATGTTAAAAATGTCTATTGGAAACAATTTTATTTCCAATTGTAATGATAACCATTCTCATATTAATATGACTACGTGATAATTAACTTTTGATGCACTCCGC (double strand) [fecI-insA-7 intergenic region]”, the DNA binding result is “binds”.
For “TGTTGCTAATAGTTAAATCGCGAATCATAAAAAGCAAAGGATCTTTTAACGAAATGTTAACTATGCGATCTGTATAGCAACTGCGGAAAACATTAATGCACTGATAAATAATGATTTATAAAAATAGGGTGCGAAATCCGTCACAGTTCAAACATACAAAATTTGTGATTTTACTTAACTATTGTGTAACTTTCATAAAACAATGTGATTCGTGTTTTTAATTAATTCACGAAAACTGGAATCGTAAAGGTGATGAC (double strand) [paaA-paaZ intergenic region]”, the DNA binding result is reported as “binds”.
As for “GATGTATGTTCTAATAAAATAGATTGGGTGGGTTGTATATTGACGTTAGTATAAATAGTATTAATGCCGCTTGCATGAATCAAGCAAAATTTATTTATATTAGTAATATGTATTTAATTAATAAATACATACATTATTTTTATGATTAAGGATAATCAATAATTAAAACAGGAAGTTCT (double strand) [gspA-gspC intergenic region]”, the DNA binding entry was “binds”.
For the sequence “GATGGGGATAAGCAGAGCGCTTATCCCCGGCAAAGAGCAATAACCCTTCTGCGATCCCTGCCGCCTTCGTCAAAAGTATCGACGGGGATCGCTACCAGATTAACCCGAATCGGCATGGAGTCAACGACGG (double strand) [sgcA-sgcQ intergenic region]”, the binding entry was “no binding”.
